Tests used:
[1] = target: Flag-mCherry-ColKhan-Cys-6His (Photorhabdus khanii); assay: EIA 8 plex n° 2: colicin coated at 100 nM, Im-RLuc8 alone at 100 nM, luciferase signal
[2] = target: Flag-mCherry-ColErw-Cys-6His (Pectobacterium carotovorum); assay: as above
[3] = target: Flag-mCherry-ColKhan-Cys-6His (Photorhabdus khanii); assay: EIA 8 plex n° 1: colicin coated at 100 nM, Im-RLuc8 alone at 100 nM, luciferase signal

Measured: RLU

B1: Myc-RLuc8-Im9-6His (protein)
chain: MGGEQKLISEEDLGGSASKVYDPEQRKRMITGPQWWARCKQMNVLDSFINYYDSEKHAENAVIFLHGNATSSYLWRHVVPHIEPVARCIIPDLIGMGKSGKSGNGSYRLLDHYKYLTAWFELLNLPKKIIFVGHDWGAALAFHYAYEHQDRIKAIVHMESVVDVIESWDEWPDIEEDIALIKSEEGEKMVLENNFFVETVLPSKIMRKLEPEEFAAYLEPFKEKGEVRRPTLSWPREIPLVKGGKPDVVQIVRNYNAYLRASDDLPKLFIESDPGFFSNAIVEGAKKFPNTEFVKVKGLHFLQEDAPDEMGKYIKSFVERVLKNEQKLELKHSISDYTEAEFLQLVTTICNADTSSEEELVKLVTHFEEMTEHPSGSDLIYYPKEGDDDSPSGIVNTVKQWRAANGKLEGGGSHHHHHH
> 100000 RLU: all assays above
